{
  "source": "paper PMC3462482",
  "about": "(Nature structural & molecular biology, 2012)",
  "molecular_target": "T1, PatGmac H618A (Prochloron sp., UniProt Q52QJ1 492-851, H618A)",
  "T1 sequence": "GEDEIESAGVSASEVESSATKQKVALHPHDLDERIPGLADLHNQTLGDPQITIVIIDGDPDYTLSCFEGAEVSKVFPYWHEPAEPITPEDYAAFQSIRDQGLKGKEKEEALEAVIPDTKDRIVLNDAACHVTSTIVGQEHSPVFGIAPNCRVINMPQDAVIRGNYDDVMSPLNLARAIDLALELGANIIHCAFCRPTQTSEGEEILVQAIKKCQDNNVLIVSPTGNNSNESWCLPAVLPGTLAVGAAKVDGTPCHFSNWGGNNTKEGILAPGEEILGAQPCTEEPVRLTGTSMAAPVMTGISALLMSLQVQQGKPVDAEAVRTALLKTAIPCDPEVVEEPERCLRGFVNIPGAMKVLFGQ",
  "assay": "crystal structure",
  "data": [
    {"binder": "VPAPIPFPAYDG", "note": "[VPAPIPFPAYDG peptide (substrate mimic)]", "values": [
      {"measurement": "binding result", "result": "binds"}
    ]}
  ]
}
